Positions count from the first letter of the chain named.
T1: cynomolgus monkey FcγRIIa1 extracellular domain with C-terminal His-tag (cynomolgus monkey)
T1 construct: Expressed in FreeStyle 293 cells and purified; also called cyno FcγRIIa1; cynoFcgRIIa1; not shown: C-terminal His-tag
T1 chain: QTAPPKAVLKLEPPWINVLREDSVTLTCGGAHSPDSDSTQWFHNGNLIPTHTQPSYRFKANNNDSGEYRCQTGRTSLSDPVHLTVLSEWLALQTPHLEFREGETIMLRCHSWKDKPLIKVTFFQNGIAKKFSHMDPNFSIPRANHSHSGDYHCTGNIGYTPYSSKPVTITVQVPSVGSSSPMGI

T2: human FcγRIIaH extracellular domain with C-terminal His-tag (human, UniProt P12318 34-217)
T2 construct: Expressed in FreeStyle 293 cells and purified; also called human FcγRIIa (type H); FcgRIIaH; not shown: C-terminal His-tag
T2 sequence: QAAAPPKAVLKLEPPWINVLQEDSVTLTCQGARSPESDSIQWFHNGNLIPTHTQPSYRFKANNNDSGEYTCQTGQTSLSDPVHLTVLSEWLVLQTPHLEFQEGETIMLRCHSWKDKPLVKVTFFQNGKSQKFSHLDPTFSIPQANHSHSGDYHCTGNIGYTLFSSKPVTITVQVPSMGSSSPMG

T3: cynomolgus monkey FcγRIIa2 extracellular domain with C-terminal His-tag (cynomolgus monkey)
T3 construct: Expressed in FreeStyle 293 cells and purified; also called cyno FcγRIIa2; cynoFcgRIIa2; not shown: C-terminal His-tag
T3 chain: T1 chain with P95T, T121A, I127K, A128S, K130N, D135N, R142Q

T4: human FcγRIIb extracellular domain with C-terminal His-tag (human, UniProt P31994 43-217)
T4 construct: Expressed in FreeStyle 293 cells and purified; also called humanFcgRIIb; not shown: C-terminal His-tag
T4 sequence: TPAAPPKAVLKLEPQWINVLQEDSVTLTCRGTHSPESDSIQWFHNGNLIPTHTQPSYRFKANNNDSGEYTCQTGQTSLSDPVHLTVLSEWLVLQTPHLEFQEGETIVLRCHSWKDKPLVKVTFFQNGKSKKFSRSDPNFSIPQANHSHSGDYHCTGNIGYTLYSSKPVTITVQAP

T5: cynomolgus monkey FcγRIIb extracellular domain with C-terminal His-tag (cynomolgus monkey)
T5 construct: Expressed in FreeStyle 293 cells and purified; also called cyno FcγRIIb; cynoFcγRIIb; not shown: C-terminal His-tag
T5 chain: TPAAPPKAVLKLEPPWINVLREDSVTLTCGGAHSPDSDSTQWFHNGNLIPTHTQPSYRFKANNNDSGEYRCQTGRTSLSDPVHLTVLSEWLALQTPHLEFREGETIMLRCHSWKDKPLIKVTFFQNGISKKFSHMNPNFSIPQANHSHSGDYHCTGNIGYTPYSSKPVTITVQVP

T6: cynomolgus monkey FcγRIIa3 extracellular domain with C-terminal His-tag (cynomolgus monkey)
T6 construct: Expressed in FreeStyle 293 cells and purified; also called cyno FcγRIIa3; cynoFcgRIIa3; not shown: C-terminal His-tag
T6 chain: T1 chain with P95T, T121A, A128S, H133P, D135N

T7: cynomolgus monkey FcγRIIIaS extracellular domain with C-terminal His-tag (cynomolgus monkey, UniProt Q8SPW2 21-206 at identity 1.00))
T7 construct: Expressed in FreeStyle 293 cells and purified; also called cyno FcγRIIIaS; cynoFcγRIIIaS; not shown: C-terminal His-tag
T7 chain: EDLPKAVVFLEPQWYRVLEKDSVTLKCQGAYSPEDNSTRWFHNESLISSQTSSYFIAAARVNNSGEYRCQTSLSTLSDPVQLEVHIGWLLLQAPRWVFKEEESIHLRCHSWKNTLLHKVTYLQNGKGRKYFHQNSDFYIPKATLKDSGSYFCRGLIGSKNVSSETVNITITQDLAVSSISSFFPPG

T8: human FcγRIIaR extracellular domain with C-terminal His-tag (human, UniProt P12318 34-217)
T8 construct: Expressed in FreeStyle 293 cells and purified; also called human FcγRIIa (type R); FcgRIIaR; not shown: C-terminal His-tag
T8 chain: T2 sequence with H134R

B1: M103205H795-MY198 / M103202L889-SK1 (antibody, human IgG1, kappa)
heavy: QVTLKESGPVLVKPTETLTLTCTVSGIDLSHDDISWVRQAPGKGLEWVGIISYAGSTYYASWAKGRLTISKDTSKNQVVLTMTNMDPVDTATYYCARGVPAYSHGGDLWGQGTLVTVSSASTKGPSVFPLAPSSKSTSGGTAALGCLVKDYFPEPVTVSWNSGALTSGVHTFPAVLQSSGLYSLSSVVTVPSSSLGTQTYICNVNHKPSNTKVDKKVEPKSCDKTHTCPPCPAPELLNGPVVFLFPPKPKDTLMISRTPEVTCVVVDVSDEDPEVKFNWYVDGVEVHNAKTKPREEQYNSTYRVVSVLTVLHQDWLNGKEYKCKVSNKALPKPIEKTISKAKGQPREPQVYTLPPSREEMTKNQVSLTCLVKGFYPSDIAVEWESNGQPENNYKTTPMVLDSDGSFFLYSKLTVDKSRWQQGNVFSCSVMHEALHNHYTQKSLSLSP
light: DIVMTQSPATLSLSPGERATLSCTSSQSVYHANWLSWFQQKPGQPPKLLIYWASTLAYGVPSRFSGSGSGTDFTLTISSLQPEDAATYYCAGGYGGGRYAFGQGTKVEIKRTVAAPSVFIFPPSDEQLKSGTASVVCLLNNFYPREAKVQWKVDNALQSGNSQESVTEQDSKDSTYSLSSTLTLSKADYEKHKVYACEVTHQGLSSPVTKSFNRGEC
notes: Fc variant of M103205H795-SG1, expressed with M103202L889-SK1 as light chain
B2: M103205H795-MY199 / M103202L889-SK1 (antibody, human IgG1, kappa)
heavy: B1 heavy with V241S, D270E, M398P
light: B1 light
notes: as for B1
B3: M103205H795-MY200 / M103202L889-SK1 (antibody, human IgG1, kappa)
heavy: B1 heavy with D270E, M398P
light: B1 light
notes: as for B1
B4: M103205H795-MY201 / M103202L889-SK1 (antibody, human IgG1, kappa)
heavy: B1 heavy with V241S, M398P
light: B1 light
notes: Fc variant of M103205H795-SG1, expressed with M103202L889-SK1 as light chain; also called MS1032LO06-MY201
B5: M103205H795-MY202 / M103202L889-SK1 (antibody, human IgG1, kappa)
heavy: B1 heavy with M398P
light: B1 light
notes: as for B1
B6: M103205H795-MY204 / M103202L889-SK1 (antibody, human IgG1, kappa)
heavy: B1 heavy with D270E, Q297L, M398P
light: B1 light
notes: as for B1
B7: M103205H795-MY205 / M103202L889-SK1 (antibody, human IgG1, kappa)
heavy: B1 heavy with V241S, Q297L, M398P
light: B1 light
notes: Fc variant of M103205H795-SG1, expressed with M103202L889-SK1 as light chain; also called MS1032LO06-MY205
B8: M103205H795-MY206 / M103202L889-SK1 (antibody, human IgG1, kappa)
heavy: B1 heavy with Q297L, M398P
light: B1 light
notes: as for B1
B9: M103205H795-MY207 / M103202L889-SK1 (antibody, human IgG1, kappa)
heavy: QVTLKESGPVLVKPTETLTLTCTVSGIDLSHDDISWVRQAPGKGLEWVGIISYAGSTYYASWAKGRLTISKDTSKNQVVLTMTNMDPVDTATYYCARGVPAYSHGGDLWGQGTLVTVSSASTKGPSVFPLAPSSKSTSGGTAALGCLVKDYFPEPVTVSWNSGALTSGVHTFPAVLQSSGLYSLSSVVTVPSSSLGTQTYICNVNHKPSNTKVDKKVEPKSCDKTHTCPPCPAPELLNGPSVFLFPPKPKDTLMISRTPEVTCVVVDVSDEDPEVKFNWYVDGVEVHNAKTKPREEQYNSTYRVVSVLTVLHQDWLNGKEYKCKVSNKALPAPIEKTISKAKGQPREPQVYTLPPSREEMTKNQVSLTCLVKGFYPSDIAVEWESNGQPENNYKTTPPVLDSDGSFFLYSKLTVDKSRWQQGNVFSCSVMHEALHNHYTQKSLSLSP
light: B1 light
notes: as for B1

Tests used:
Assay in all cases: SPR (Biacore); KD of SG1 divided by KD of the variant for this FcgR;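 also: relative to parent M103205H795-SG1 carrying the SG1 human heavy chain constant region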
[1] = target: T1, cynomolgus monkey FcγRIIa1 …
Experimental: (§1) Regarding such interactions, KD values were calculated using the following 1:1 binding model described in BIACORE® T100 Software Handbook BR1006-48 Edition AE.
(§2) The behavior of interacting molecules according to the 1:1 binding model on BIACORE® can be described by Equation 1: Req=C·R max/(KD+C)+RI, wherein, Req is a plot of steady-state binding levels to analyte concentration. C is concentration, RI is bulk refractive index contribution in the sample, and Rmax is analyte binding capacity of the surface. When this equation is rearranged, KD can be expressed as Equation 2: KD=C·Rmax/(Req−RI)−C. KD can be calculated by substituting the values of Rmax, RI, and C into Equation 1 or Equation 2. From the current measurement conditions, RI=0, C=2 μmol/L can be used.
(§3) The variants were expressed using M103202L889-SK1 as the light chain and their affinity was analyzed.

[2] = target: T2, human FcγRIIaH extracellular domain …
Experimental: as §1, §2, §3

[3] = target: T3, cynomolgus monkey FcγRIIa2 …
Experimental: as §1, §2, §3

[4] = target: T4, human FcγRIIb extracellular domain with …
Experimental: as §1, §2, §3

[5] = target: T5, cynomolgus monkey FcγRIIb extracellular …
Experimental: as §1, §2, §3

[6] = target: T6, cynomolgus monkey FcγRIIa3 …
Experimental: as §1, §2, §3

[7] = target: T7, cynomolgus monkey FcγRIIIaS …
Experimental: as §1, §2, §3

[8] = target: T9, human FcγRIIIaV extracellular domain with C-terminal His-tag (human, UniProt P08637 17-208)
T9 construct: Expressed in FreeStyle 293 cells and purified; also called FcgRIIIaV; not shown: C-terminal His-tag
Experimental: as §1, §2, §3

[9] = target: T8, human FcγRIIaR extracellular domain …
Experimental: as §1, §2, §3

T9 sequence (P08637 17-208 F176V): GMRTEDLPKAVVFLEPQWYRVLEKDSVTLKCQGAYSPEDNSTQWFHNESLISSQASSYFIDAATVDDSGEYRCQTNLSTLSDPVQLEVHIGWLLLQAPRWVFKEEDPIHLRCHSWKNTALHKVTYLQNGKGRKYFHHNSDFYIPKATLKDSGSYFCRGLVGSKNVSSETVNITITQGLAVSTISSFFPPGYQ

Row | Binder | KD fold (SG1 = 1) [1] | KD fold (SG1 = 1) [2] | KD fold (SG1 = 1) [3] | KD fold (SG1 = 1) [4] | KD fold (SG1 = 1) [5] | KD fold (SG1 = 1) [6] | KD fold (SG1 = 1) [7] | KD fold (SG1 = 1) [8] | KD fold (SG1 = 1) [9]
1 | B1 | 7.3 fold | 1.3 fold | 15.5 fold | 11 fold | 7.5 fold | 12.1 fold | 0.18 fold | 0.12 fold | 1.4 fold
2 | B2 | 1.7 fold | 0.6 fold | 2.6 fold | 2.4 fold | 1.6 fold | 1.4 fold | 0.09 fold | 0.06 fold | 0.4 fold
3 | B3 | 1.9 fold | 0.4 fold | 3.4 fold | 3.3 fold | 1.6 fold | 3.4 fold | 0.08 fold | 0.05 fold | 0.4 fold
4 | B4 | 2.3 fold | 0.8 fold | 8.6 fold | 4.2 fold | 4.3 fold | 4.4 fold | 0.06 fold | 0.05 fold | 0.6 fold
5 | B5 | 5.3 fold | 0.6 fold | 8 fold | 6.5 fold | 3.9 fold | 7.7 fold | 0.09 fold | 0.09 fold | 0.9 fold
6 | B6 | 2.5 fold | 0.5 fold | 3.6 fold | 3.5 fold | 3.2 fold | 8.8 fold | 0.1 fold | 0.07 fold | 0.4 fold
7 | B7 | 3.5 fold | 1.5 fold | 4.6 fold | 8 fold | 7.2 fold | 5.7 fold | 0.06 fold | 0.06 fold | 0.8 fold
8 | B8 | 4 fold | 0.7 fold | 6.5 fold | 5.1 fold | 4 fold | 5.7 fold | 0.11 fold | 0.1 fold | 0.8 fold
9 | B9 | 2.1 fold | 0.5 fold | 8.6 fold | 2.9 fold | 2.2 fold | 2.5 fold | 0.08 fold | 0.1 fold | 0.4 fold

Reference: patent publication US20200317768A1 (published 2020)
